Measured values as given in US20040091907.

Assays:
[1] = target: GST-Maguin-2-like fusion protein (amino acids 385-555) [GST: P08515]
[2] = target: T1, GST-GEF-H1S (aa763-921)
T1 chain: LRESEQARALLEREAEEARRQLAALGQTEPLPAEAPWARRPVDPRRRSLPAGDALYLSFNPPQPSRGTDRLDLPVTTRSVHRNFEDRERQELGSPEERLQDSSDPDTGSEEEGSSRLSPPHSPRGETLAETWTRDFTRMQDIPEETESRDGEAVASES

[3] = target: GST (Glutathione-S-transferase) [GST: P08515]
[4] = target: T2, GEF-H1 peptide, amino acids 55-72
T2 chain: RQSLLGSRRGRSSLSLAK

[5] = target: T3, GEF-H1 peptide, amino acids 807-824 (unphosphorylated)
T3 chain: RRRSLPAGDALYLSFNPP

[6] = target: T4, GEF-H1 peptide 807-824 with phospho-serine at position 810
T4 chain: RRRSLPAGDALYLSFNPP

Chain of GST (Glutathione-S-transferase) [GST: P08515] (P08515 whole entry, the tested form may be a part): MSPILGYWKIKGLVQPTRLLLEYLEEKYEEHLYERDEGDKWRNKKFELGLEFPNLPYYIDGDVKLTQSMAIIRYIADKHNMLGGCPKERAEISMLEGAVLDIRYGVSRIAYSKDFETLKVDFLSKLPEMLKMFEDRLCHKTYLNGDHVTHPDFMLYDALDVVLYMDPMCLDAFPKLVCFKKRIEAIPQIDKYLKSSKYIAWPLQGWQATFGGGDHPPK
Chain of GST-Maguin-2-like fusion protein (amino acids 385-555) [GST: P08515] (P08515 whole entry, looked up, the tested form may be a part): as the sequence (P08515 whole entry, the tested form may be a part) above

B1: Glutathione-s-transferase (GST) fused PAK4 (residues 291-591) (protein)
chain: SPQREPQRVSHEQFRAALQLVVDPGDPRSYLDNFIKIGEGSTGIVCIATVRSSGKLVAVKKMDLRKQQRRELLFNEVVIMRDYQHENVVEMYNSYLVGDELWVVMEFLEGGALTDIVTHTRMNEEQIAAVCLAVLQALSVLHAQGVIHRDIKSDSILLTHDGRVKLSDFGFCAQVSKEVPRRKSLVGTPYWMAPELISRLPYGPEVDIWSLGIMVIEMVDGEPPYFNEPPLKAMKMIRDNLPPRLKNLHKVSPSLKGFLDRLLVRDPAQRATAAELLKHPFLAKAGPPASIVPLMRQNRTR
For B1, the “phosphorylation in an in vitro kinase assay” value [1] was “weakly phosphorylated the GST-Maguin-2-like fusion protein”, the “Km (in vitro kinase assay)” value [2] was “Km is the 1 to 5 uM range” and the “phosphorylation in an in vitro kinase reaction (SDS-PAGE, autoradiograph)” value [2] was “The autoradiograph showed phosphorylation of the GEF-H1S polypeptide”. For the same protein, the “phosphorylation in an in vitro kinase assay” value [3] was “PAK4 fails to phosphorylate the GST control”, the “phosphorylation in an in vitro kinase reaction (SDS-PAGE, autoradiograph)” value [3] was “no phosphorylation of the fusion partner GST” and the “phosphorylation in in vitro kinase assays” value [4] was “are phosphorylated by PAK4”. The “Km (in vitro kinase assay)” value [5] was “also a high affinity substrate for PAK4 with a similar Km for PAK4 as the GST-GEF-H1 (793-921) fusion protein”, the “phosphorylation in in vitro kinase assays” value [5] was “are phosphorylated by PAK4” and the “phosphorylation in an in vitro kinase assay” value [6] was “Peptides with phospho-serine at position 810 were no longer substrates for PAK4”.
